# Experimental data: article PMC4380498, “Molecular Insights into Frataxin-Mediated Iron Supply for Heme Biosynthesis in Bacillus subtilis” (PLoS ONE, 2015)
# T1: Bacillus subtilis ferrochelatase HemH, recombinant Strep-tag II variant (Bacillus subtilis 168, UniProt P32396 1-310)
# T1 sequence: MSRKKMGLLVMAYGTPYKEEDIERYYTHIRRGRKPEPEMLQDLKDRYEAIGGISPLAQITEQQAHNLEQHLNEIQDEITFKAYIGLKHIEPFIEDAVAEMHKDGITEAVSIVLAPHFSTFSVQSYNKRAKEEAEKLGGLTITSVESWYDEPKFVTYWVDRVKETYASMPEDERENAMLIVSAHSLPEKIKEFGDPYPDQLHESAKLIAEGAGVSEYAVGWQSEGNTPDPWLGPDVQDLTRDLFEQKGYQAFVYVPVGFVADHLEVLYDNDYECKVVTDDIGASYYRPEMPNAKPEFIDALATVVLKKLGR
# Columns and labels:
# [1] = molecular target: T1, Bacillus subtilis ferrochelatase HemH, …; assay: cell-based or functional assay
# [2] = molecular target: T1, Bacillus subtilis ferrochelatase HemH, …; assay: MST; 50 nM fluorescently labelled holo-Fra (iron-charged); HemH titrated from 42.6 μM to 0.01 μM in TRIS-based NT binding analysis buffer; 25°C; Monolith NT.115; conditions: both partners purified
# [3] = molecular target: the molecule itself; assay: SEC; separation of the apo- and holo-forms of bsNos by size-exclusion chromatography after affinity purification from the crude protein extract
Binder,"kcat(obs) of the frataxin-dependent conversion of protoporphyrin IX into heme b by HemH (holo-Fra varied between 0.1 and 10 μM, Michaelis-Menten fit) [1] [s⁻¹]",Kd [2] [µM],stoichiometry N [3]
"Bacillus subtilis frataxin homologue Fra, recombinant His6-tagged (natural protein, Bacillus subtilis 168, frataxin homologue Fra of Bacillus subtilis 168, gene amplified from genomic DNA; Used iron-loaded (holo-Fra, anaerobic incubation with FeCl2) or iron-free (apo-Fra); For MST it was labelled with the cysteine-reactive Monolith NT.115 Protein Labeling Kit RED; The methods say N-terminal His6-tag fusions, while legends print Fra-His6; also called Fra-His6; holo-Fra; not shown: His6, N-terminal, kept) MDVFSEYLAGIADPFHRERTEEVLTWIKNKYPNLHTEIKWNQPMFTDHGTFIIGFSVSKKHLAVAPEKVTIAHVEDDIVKAGYDYTEQLIRIPWNGPVDYTLLEKMIEFNILDKADCSTFWRK",0.925,1.63 ± 0.02,–
"Bacillus subtilis nitric oxide synthase bsNos, recombinant His6-tagged (enzyme, Bacillus subtilis 168, UniProt O34453 1-363, looked up, nitric oxide synthase bsNos of Bacillus subtilis 168, gene amplified from genomic DNA; The holo-form (with heme b) is called dimeric and the apo-form monomeric; The two were separated by size-exclusion chromatography; also called Nos-His6; holo-bsNos; not shown: His6, N-terminal, kept) MEEKEILWNEAKAFIAACYQELGKEEEVKDRLADIKSEIDLTGSYVHTKEELEHGAKMAWRNSNRCIGRLFWNSLNVIDRRDVRTKEEVRDALFHHIETATNNGKIRPTITIFPPEEKGEKQVEIWNHQLIRYAGYESDGERIGDPASCSLTAACEELGWRGERTDFDLLPLIFRMKGDEQPVWYELPRSLVIEVPITHPDIEAFSDLELKWYGVPIISDMKLEVGGIHYNAAPFNGWYMGTEIGARNLADEKRYDKLKKVASVIGIAADYNTDLWKDQALVELNKAVLHSYKKQGVSIVDHHTAASQFKRFEEQEEEAGRKLTGDWTWLIPPISPAATHIFHRSYDNSIVKPNYFYQDKPYE",–,–,2
